Assays:
[1] = Substrate specificity assays of the purified reductase enzymes; format: biochemical; conditions: FIG. 10
Method: The activities of the isolated and purified oxoaldehyde reductase enzymes were determined in a mixture containing 9 mM methylglyoxal, 0.1 mM NADPH, 25 mM potassium phosphate buffer (pH 7.0), and the fraction enzyme (8 μg approximately) in a total volume of 0.5 ml. The reaction was monitored at 340 nm. All assays were performed at 25° C. One unit of the enzyme was defined as the amount of enzyme that the catalyzes the oxidation of 1 μmol of NADPH per minute at 25° C.
Various carbonyl compounds were assayed as substrates for the isolated and purified reductase enzymes.

[2] = Effect of the reductases on the LC18 peak in fresh beer (HPLC); format: biochemical; conditions: 50 units/ml enzyme, 25° C., 30 minutes, FIG. 11
Method: Analysis of the chemical indices LC18 and 5-HMF was performed by liquid chromatography, using a Waters HPLC system which consisted of a 600 pump, Wisp 717 autosampler, Millennium 2010 Chromatography Manager v 2.1. Separation was carried out in an Aminex HPX-87H column 300×7.8 mm, 9 μm held at 55° C. Elution was monitored with a Waters 991 Photodiode Array Detector (200 nm-300 nm) and the quantitation of 5-HMF and LC18 peak was carried out at 283 nm. For analysis, 50 μl of degassed beer was injected in duplicate samples and eluted with 0.05 M H2SO4 over 25 min at a flow rate of 1.0 ml/min. Quantitation of 5-HMF was performed using an external calibration curve of the respective pure compounds (Sigma; Saint Louis, Mo.).
In order to determine the effect of both reductases on the intensity of the LC18 peak, a 1 ml mixture of fresh beer, 25 mM potassium phosphate buffer (pH 7.0), 0.1 mM NADPH and the required volume of enzyme to obtain a final concentration in the solution of 50 units/ml of enzyme was incubated at 25° C. for 30 minutes. After the incubation, the treated beer was analyzed on an Aminex HPX-87H column connected to a Waters HPLC System under the conditions described above.

B1: Reductase 1: NADPH-dependent oxidoreductase purified from brewer's yeast; first 30 residues show 100% homology to Old Yellow Enzyme isozyme OYE2 (protein, UniProt Q03558 2-400, looked up)
NADPH dehydrogenase 2: PFVKDFKPQALGDTNLFKPIKIGNNELLHRAVIPPLTRMRAQHPGNIPNRDWAVEYYAQRAQRPGTLIITEGTFPSPQSGGYDNAPGIWSEEQIKEWTKIFKAIHENKSFAWVQLWVLGWAAFPDTLARDGLRYDSASDNVYMNAEQEEKAKKANNPQHSITKDEIKQYVKEYVQAAKNSIAAGADGVEIHSANGYLLNQFLDPHSNNRTDEYGGSIENRARFTLEVVDAVVDAIGPEKVGLRLSPYGVFNSMSGGAETGIVAQYAYVLGELERRAKAGKRLAFVHLVEPRVTNPFLTEGEGEYNGGSNKFAYSIWKGPIIRAGNFALHPEVVREEVKDPRTLIGYGRFFISNPDLVDRLEKGLPLNKYDRDTFYKMSAEGYIDYPTYEEALKLGWDKN
[1]
  activity on pyruvate: neither enzyme showed any appreciable activity
  effect on the assayed aldoses (glucose, galactose and xylose): little or no effect
  metyrapone as substrate: acceptable substrate
[1]; comparison of Reductase 1 with Reductase 2
  activity on compounds with a single keto or aldo group such as acetaldehyde and pyridine-3-aldehyde: higher activity than Reductase 2
[1]; substrates methylglyoxal, 3-deoxyglucosone
  activity on 2-oxoaldehydes such as methylglyoxal and 3-deoxyglucosone: acted on
[2]; 0.1 mM NADPH, relative to untreated control beer
  change in the area of the LC18 peak: significant decrease
[2]
  decrease in the LC18 peak compared with Reductase 2: larger decrease

From patent publication US6468567B1, “Malt beverage having stabilized flavor and methods of production thereof” (Cerveceria Polar, C.A., priority 1997, dated 2002)
